B1: ovalbumin (protein, UniProt P01012 2-386, looked up)
Ovalbumin: GSIGAASMEFCFDVFKELKVHHANENIFYCPIAIMSALAMVYLGAKDSTRTQINKVVRFDKLPGFGDSIEAQCGTSVNVHSSLRDILNQITKPNDVYSFSLASRLYAEERYPILPEYLQCVKELYRGGLEPINFQTAADQARELINSWVESQTNGIIRNVLQPSSVDSQTAMVLVNAIVFKGLWEKAFKDEDTQAMPFRVTEQESKPVQMMYQIGLFRVASMASEKMKILELPFASGTMSMLVLLPDEVSGLEQLESIINFEKLTEWTSSNVMEERKIKVYLPRMKMEEKYNLTSVLMAMGITDVFSSSANLSGISSAESLKISQAVHAAHAEINEAGREVVGSAEAGVDAASVSEEFRADHPFLFCIKHIATNAVLFFGRCVSP
notes: model antigen/allergen, Grade V, Sigma

Legend:
[1] = cited from earlier work
IgG1 = assay: Serum total IgG1 by sandwich ELISA, OVA model; type: in vivo, mouse; details: FIG. 2; aerosol 6×, Groups 4 and 6; mean±SEM
Protocol: (§1) Female BALB/c mice (6-10 weeks of age) were purchased from Charles River, Wilmington, Mass., and housed five mice per cage in a 12/12 h light/dark cycle with food and water available ad libitum. All experimental procedures were approved by the institutional animal ethics committee (IAUCUC) at the Institute of Biosciences and Technology, Texas A&M HSC.
(§2) Synthetic TLR ligands (referred to as O/P) were purchased from InvivoGen (San Diego, Calif.), reconstituted in endotoxin-free water, and suspended in 8 ml sterile PBS at the following concentrations: Pam2 10 μg/ml; ODN2395 20 μg/ml. Mice were sensitized to ovalbumin (OVA) ([…], Grade V, 2.25 mg alum in saline, pH7.4; Sigma, St. Louis, Mo.) administered by intraperitoneal (IP) injection once weekly for one or two weeks. Sensitized mice were exposed for 30 min to an aerosol of 2.5% (wt/vol) ovalbumin in 0.9% saline, via Aerotech II nebulizer (CIS US, Inc.) combined with or without O/P in the presence of room air supplemented with 5% CO2 to promote maximal ventilation and homogeneous aerosol exposure throughout the lungs.
(§3) Serum immunoglobulin concentrations were determined by standard sandwich ELISA technique using 96 well Easywash high binding flat bottom plates (Corning). […] Reactions were stopped by addition of 2N H2SO4 and absorbance read at 450 nm. All readings used in the data fell within the linear portion of the standard curves. […]

OVA-specific IgE = assay: Serum OVA-specific IgE by sandwich ELISA, OVA sensitization and aerosol challenge mouse model; type: in vivo; details: mean±SEM
Protocol: as §1, §2, §3

eosinophils (EOS) in BAL = assay: BAL total and differential cell counts (Wright-Giemsa), OVA model; type: in vivo, mouse; details: FIG. 3B; sensitization optimization, Group 8: two IP OVA/alum, aerosol two times/week
Protocol: as §2
BAL was obtained by instilling and withdrawing two, 1 ml aliquots of PBS via trachea cannula (luer stub adapter, BD Biosciences). Total leukocyte count was determined with a hemocytometer (Houser Scientific, Horsham, Pa.), and slides for differential cell count were prepared by cytospin of 300 μl of BAL fluid at 500×g for 5 min, followed by Wright-Giemsa staining.

IgG2a = assay: Serum IgG2a by sandwich ELISA, OVA model; type: in vivo, mouse; details: FIG. 2; aerosol 6×, Group 6; mean±SEM
Protocol: as §1, §2, §3

total IgE = assay: Serum total IgE by sandwich ELISA, OVA sensitization and aerosol challenge mouse model; type: in vivo; set-up: unit not given here; details: mean±SEM
Protocol: as §1, §2
Serum immunoglobulin concentrations were determined by standard sandwich ELISA technique using 96 well Easywash high binding flat bottom plates (Corning). All reagents were diluted in assay diluent (TBS+0.1% BSA [Calbiochem]) except for the coating reagent, which was diluted in TBS only. All wells were washed with wash buffer (TBS+0.1% Tween-20) 3×s, 5 minutes per wash, and all samples developed by adding TMB Substrate Reagent (BD Biosciences) for 30 minutes in the dark. Reactions were stopped by addition of 2N H2SO4 and absorbance read at 450 nm. All readings used in the data fell within the linear portion of the standard curves.
The same protocol was followed for determining total IgE using the following amounts of reagents: 2 μg/mL goat anti-mouse IgE (AbD Serotec, STAR166), 2 μg/mL Biotin Rat Anti-Mouse IgE (BD Biosciences, clone R35-118). For OVA IgG1, the following amounts of reagents were used: 100 μg/mL OVA (Sigma) and 0.1 μg/mL Biotin Rat Anti-Mouse IgG1 (eBioscience, clone M1-14D12). For total IgG1: 2 μg/mL Rat Anti-Mouse IgG1 (BioLegend, clone RMG1-1), 0.05 μg/mL Biotin Rat Anti-Mouse IgG1 (eBioscience, clone M1-14D12). For IgG2a: 2 μg/mL Rat Anti-Mouse IgG2a (BioLegend, clone RMG2a-62) and 0.05 μg/mL Biotin Goat Anti-Mouse IgG2a (AbD Serotec, 108008). For total IgG: 2 μg/mL Goat Anti-Mouse IgG (AbD Serotec, 103001) and 0.025 μg/mL Biotin Sheep Anti-Mouse IgG (AbD Serotec, AAC10B).

Molecule | solubility in dimethyl sulfoxide and dimethylformamide ([1]; dimethyl sulfoxide, dimethylformamide) | solubility in methanol and 95% ethanol ([1]; methanol, 95% ethanol) | solubility in water ([1]; water) | IgG1 levels (IgG1) | OVA-specific IgE (OVA-specific IgE; FIG. 1C, serum, day 21, aerosol 6×, Groups 4 and 6) | OVA-IgE (OVA-specific IgE; FIG. 6 second panel, aerosol schedule of FIG. 5A, Groups 2 and 3) | eosinophils (EOS) in BAL (eosinophils (EOS) in BAL) | IgG2a levels (IgG2a) | total IgE (total IgE; FIG. 1B, serum, day 21, aerosol 6× (three times/week for 2 weeks from second immunization), Groups 4 and 6) | total IgE (total IgE; FIG. 4, sensitization optimization, Group 5: one IP OVA/alum, OVA aerosol two times/week) | total IgE (total IgE; FIG. 4, sensitization optimization, Group 8: two IP OVA/alum, OVA aerosol two times/week) | total IgE (total IgE; FIG. 6 top panel, two OVA immunizations, aerosol schedule of FIG. 5A, Groups 2 and 3)
CCC(=O)O[C@]1(C(=O)SCF)[C@H](C)C[C@H]2[C@@H]3C[C@H](F)C4=CC(=O)C=C[C@]4(C)[C@@]3(F)[C@@H](O)C[C@@]21C [Fluticasone propionate, S-(fluromethyl)6α,9-difluoro-11β-17-dihydroxy-16α-methyl-3-oxoandrosta-1,4-diene-17β-carbothioate,17-propionate] | freely soluble | slightly soluble | practically insoluble |  |  |  |  |  |  |  |  | 
B1 |  |  |  | 6.01±0.66 | 4.36±0.82 | 3.77±1.00 | elevated compared to all other groups | 25±3 | 17.23±1.82 | 5.36±1.70 | 11.05±2.39 | 24.66±8.23

From patent US11826422B2, “Methods and compositions for adaptive immune modulation” (THE BOARD OF REGENTS OF THE UNIVERSITY OF TEXAS SYSTEM, priority 2016, dated 2023)
